In US20060198851A1 one finds % of radioactive counts bound and EC50 data, which are given here for 2 substances.

For assay [1], the target named is soluble Aβ1-42, [125I]Aβ1-42 (human) (UniProt P05067). The assay can be described thus: capture radioimmunoassay, 50,000 CPM of 125I-Aβ 1-42 (or 125I-Aβ 1-40).
The target in assay [2] is synthetic Aβ1-42 (aggregated in the ELISAs) (human) (UniProt P05067). The assay can be described thus: ELISA on aggregated synthetic Aβ1-42; given as ED50.

In the case of monoclonal antibody 10D5 (IgG1), the % of radioactive counts bound at 10 µg/ml in assay [1] came out at 2%. Further, the EC50 in assay [2] is 0.053 nM.

In the case of monoclonal antibody 12B4 (IgG2a), in assay [1], the % of radioactive counts bound at 10 µg/ml was found to be 7%. Further, the EC50 in assay [2] is 0.667 nM.
